{"source": "patent US11344504", "about": "(MODERNATX, dated 2022)", "target": "T1, OX40 receptor on mouse CD4+ T-cells (mouse, UniProt P47741 20-272)", "T1 sequence (looked up)": "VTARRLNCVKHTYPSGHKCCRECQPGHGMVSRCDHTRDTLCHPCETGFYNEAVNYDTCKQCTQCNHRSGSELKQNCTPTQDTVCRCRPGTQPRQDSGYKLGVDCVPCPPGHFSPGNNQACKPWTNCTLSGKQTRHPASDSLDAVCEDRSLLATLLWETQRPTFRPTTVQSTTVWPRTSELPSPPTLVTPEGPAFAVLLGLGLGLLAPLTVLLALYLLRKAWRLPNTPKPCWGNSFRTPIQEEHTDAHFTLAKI", "assay": "cell-based or functional assay"}
{"binder": "murine OX40L polypeptide expressed on the surface of B16F10 cells treated with mOX40L_miR-122 mRNA (ligand) MEGEGVQPLDENLENGSRPRFKWKKTLRLVVSGIKGAGMLLCFIYVCLQLSSSPAKDPPIQRLRGAVTRCEDGQLFISSYKNEYQTMEVQNNSVVIKCDGLYIIYLKGSFFQEVKIDLHFREDHNPISIPMLNDGRRIVFTVVASLAFKDKVYLTVNAPDTLCEHLQINDGELIVVQLTPGYCAPEGSYHSTVNQVPL", "values": [{"measurement": "mouse IL-2 production by CD4+ T-cells co-cultured with OX40L-expressing B16F10 cells, fold over control (mock treated or non-translated mRNA)", "value": "~2", "unit": "fold"}]}
